# Biological target: ima4_human KPNA3 (UniProt O00505)
# Sequence (O00505 whole entry): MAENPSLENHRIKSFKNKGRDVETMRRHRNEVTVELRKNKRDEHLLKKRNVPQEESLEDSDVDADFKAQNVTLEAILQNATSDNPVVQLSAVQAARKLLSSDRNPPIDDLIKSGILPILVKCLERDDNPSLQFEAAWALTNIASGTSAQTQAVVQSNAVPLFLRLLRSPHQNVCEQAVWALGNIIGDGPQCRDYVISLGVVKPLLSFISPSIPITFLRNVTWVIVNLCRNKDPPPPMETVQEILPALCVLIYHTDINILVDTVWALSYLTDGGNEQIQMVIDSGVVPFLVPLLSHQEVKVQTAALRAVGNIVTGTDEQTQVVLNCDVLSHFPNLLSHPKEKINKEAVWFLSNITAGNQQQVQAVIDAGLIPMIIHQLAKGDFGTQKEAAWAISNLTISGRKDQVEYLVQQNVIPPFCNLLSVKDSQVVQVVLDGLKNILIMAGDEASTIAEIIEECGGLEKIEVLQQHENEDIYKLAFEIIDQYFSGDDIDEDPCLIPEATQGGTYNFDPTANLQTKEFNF
substance,measurement,value
"Circumsporozoite protein (Plasmodium yoelii yoelii), P06914 R315T;R317T;R319T",effect of a mutation on the interaction,decreasing interaction
